Reference: patent publication US20210246218A1 (LYVGEN BIOPHARMA SUZHOU, published 2021)

Legend:
Test in all cases: flow cytometry on CHO cells over-expressing the target
human VISTA on CHO cells = target: T1, human VISTA on CHO cells (human, UniProt Q9H7M9 33-311)
T1 construct: whole, on cells
Experimental: (§1) The cells were resuspended in ice cold assay buffer at 2*10\hat{ }6/mL and transferred to 96-well V-bottom plate with 100 μL/well. […] The plate was incubated in the dark for 2 hours at 4° C. The cells were washed 3 times by centrifugation at 1000 g for 3 min and resuspended in 100 μL ice cold assay buffer containing goat F(ab′)₂ anti-human IgG-Fc (PE) or PE goat anti-mouse IgG antibody. The plate was incubated in the dark for another 1 hour at 4° C. The cells were washed 2 times by centrifugation at 1000 g for 3 min and resuspended in ice cold assay buffer containing 2% PFA and analyzed on the flow cytometer immediately.

human TIGIT on CHO cells = target: T2, human TIGIT on CHO cells (human, UniProt Q495A1 22-244)
T2 construct: whole, on cells
T2 sequence (looked up): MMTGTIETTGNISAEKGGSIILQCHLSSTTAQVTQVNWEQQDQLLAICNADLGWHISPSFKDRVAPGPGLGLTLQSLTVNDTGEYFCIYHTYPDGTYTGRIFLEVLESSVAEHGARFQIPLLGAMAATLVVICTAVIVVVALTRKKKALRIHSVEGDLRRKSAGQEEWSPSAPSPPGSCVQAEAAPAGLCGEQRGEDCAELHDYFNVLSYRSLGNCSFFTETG
Experimental: as §1

human CD40 on CHO cells = target: T3, human CD40 on CHO cells (human, UniProt P25942 21-277)
T3 construct: whole, on cells
Experimental: as §1

human CD27 on CHO cells = target: T4, human CD27 on CHO cells (human, UniProt P26842 20-260)
T4 construct: whole, on cells
Experimental: as §1

human GITR on CHO cells = target: T5, human GITR on CHO cells (human, UniProt Q9Y5U5 26-241)
T5 construct: whole, on cells
T5 sequence (looked up): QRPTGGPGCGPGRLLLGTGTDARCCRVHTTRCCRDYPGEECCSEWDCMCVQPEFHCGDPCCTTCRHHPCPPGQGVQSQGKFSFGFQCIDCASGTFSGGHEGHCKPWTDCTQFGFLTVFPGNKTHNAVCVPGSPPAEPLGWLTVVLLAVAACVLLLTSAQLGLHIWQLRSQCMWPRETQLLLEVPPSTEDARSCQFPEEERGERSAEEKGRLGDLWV
Experimental: as §1

human CD19 on CHO cells = target: T6, human CD19 on CHO cells (human, UniProt P15391 20-556)
T6 construct: whole, on cells
T6 sequence (looked up): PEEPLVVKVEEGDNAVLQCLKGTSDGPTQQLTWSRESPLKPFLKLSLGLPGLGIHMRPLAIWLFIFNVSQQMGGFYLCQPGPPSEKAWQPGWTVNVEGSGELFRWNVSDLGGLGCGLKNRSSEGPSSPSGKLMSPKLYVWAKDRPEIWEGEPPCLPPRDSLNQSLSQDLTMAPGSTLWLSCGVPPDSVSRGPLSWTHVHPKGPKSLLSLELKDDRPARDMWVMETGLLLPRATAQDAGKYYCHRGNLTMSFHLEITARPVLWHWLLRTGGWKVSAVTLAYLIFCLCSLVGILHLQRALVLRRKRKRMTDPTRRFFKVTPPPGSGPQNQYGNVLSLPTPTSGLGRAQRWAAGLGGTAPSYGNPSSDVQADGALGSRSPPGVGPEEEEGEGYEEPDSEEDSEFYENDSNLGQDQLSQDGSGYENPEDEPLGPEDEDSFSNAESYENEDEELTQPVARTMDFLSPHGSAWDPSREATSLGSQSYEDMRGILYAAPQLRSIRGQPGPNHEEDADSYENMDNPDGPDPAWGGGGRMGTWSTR
Experimental: as §1

human PD-L1 on CHO cells = target: T7, human PD-L1 on CHO cells (human, UniProt Q9NZQ7 19-290)
T7 construct: whole, on cells
Experimental: as §1

[1] = target: T8, human CD200R1 on CHO cells (human, UniProt Q8TD46 25-348)
T8 construct: whole, on cells
T8 sequence (looked up): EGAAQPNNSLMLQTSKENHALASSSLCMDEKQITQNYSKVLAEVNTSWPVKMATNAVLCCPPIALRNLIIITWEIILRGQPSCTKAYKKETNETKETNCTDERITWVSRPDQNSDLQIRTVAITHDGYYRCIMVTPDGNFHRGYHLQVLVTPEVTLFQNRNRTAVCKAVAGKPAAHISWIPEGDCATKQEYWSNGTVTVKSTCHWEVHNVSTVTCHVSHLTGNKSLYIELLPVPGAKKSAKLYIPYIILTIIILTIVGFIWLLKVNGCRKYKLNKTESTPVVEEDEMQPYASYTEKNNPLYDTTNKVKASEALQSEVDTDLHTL
Experimental: as §1

human CD160 on CHO cells = target: T9, human CD160 on CHO cells (human, UniProt O95971 25-159)
T9 construct: whole, on cells
T9 sequence (looked up): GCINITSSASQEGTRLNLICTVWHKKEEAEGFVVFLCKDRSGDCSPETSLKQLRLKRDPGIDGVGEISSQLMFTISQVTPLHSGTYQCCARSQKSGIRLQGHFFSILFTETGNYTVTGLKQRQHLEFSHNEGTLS
Experimental: as §1

human PD-1 on CHO cells = target: T10, human PD-1 on CHO cells (human, UniProt Q15116 25-288)
T10 construct: whole, on cells
Experimental: as §1

human CD47 on CHO cells = target: T11, human CD47 on CHO cells (human, UniProt Q08722 19-323)
T11 construct: whole, on cells
Experimental: as §1

human B7-H4 on CHO cells = target: T12, human B7-H4 on CHO cells (human, UniProt Q7Z7D3 25-282)
T12 construct: whole, on cells
T12 sequence (looked up): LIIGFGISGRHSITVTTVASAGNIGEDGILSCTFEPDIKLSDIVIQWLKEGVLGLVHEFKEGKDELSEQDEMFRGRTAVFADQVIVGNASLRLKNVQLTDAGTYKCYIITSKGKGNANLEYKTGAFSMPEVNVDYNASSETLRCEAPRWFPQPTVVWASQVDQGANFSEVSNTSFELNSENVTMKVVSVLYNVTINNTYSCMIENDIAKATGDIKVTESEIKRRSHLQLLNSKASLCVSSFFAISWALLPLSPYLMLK
Experimental: as §1

human LTBR on CHO cells = target: T13, human LTBR on CHO cells (human, UniProt P36941 31-435)
T13 construct: whole, on cells
Experimental: as §1

human BTLA on CHO cells = target: T14, human BTLA on CHO cells (human, UniProt Q7Z6A9 31-289)
T14 construct: whole, on cells
Experimental: as §1

T13 sequence (P36941 31-435): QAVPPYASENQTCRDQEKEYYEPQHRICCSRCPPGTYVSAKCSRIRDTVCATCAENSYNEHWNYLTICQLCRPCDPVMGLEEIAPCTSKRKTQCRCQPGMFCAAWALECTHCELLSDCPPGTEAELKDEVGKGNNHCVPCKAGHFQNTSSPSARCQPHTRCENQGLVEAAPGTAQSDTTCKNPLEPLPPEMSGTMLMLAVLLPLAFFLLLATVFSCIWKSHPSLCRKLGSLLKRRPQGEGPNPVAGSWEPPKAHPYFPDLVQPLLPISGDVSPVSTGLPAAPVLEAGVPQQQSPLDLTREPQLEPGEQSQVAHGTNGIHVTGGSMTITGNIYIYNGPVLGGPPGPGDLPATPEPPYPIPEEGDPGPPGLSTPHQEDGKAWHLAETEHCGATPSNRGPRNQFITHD
T4 sequence (P26842 20-260): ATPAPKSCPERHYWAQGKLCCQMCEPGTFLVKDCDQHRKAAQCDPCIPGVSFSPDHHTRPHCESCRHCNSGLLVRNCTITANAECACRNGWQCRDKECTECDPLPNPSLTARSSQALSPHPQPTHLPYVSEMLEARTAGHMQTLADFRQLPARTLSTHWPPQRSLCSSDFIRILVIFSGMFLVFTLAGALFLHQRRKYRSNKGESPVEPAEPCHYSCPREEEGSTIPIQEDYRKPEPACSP
T3 sequence (P25942 21-277): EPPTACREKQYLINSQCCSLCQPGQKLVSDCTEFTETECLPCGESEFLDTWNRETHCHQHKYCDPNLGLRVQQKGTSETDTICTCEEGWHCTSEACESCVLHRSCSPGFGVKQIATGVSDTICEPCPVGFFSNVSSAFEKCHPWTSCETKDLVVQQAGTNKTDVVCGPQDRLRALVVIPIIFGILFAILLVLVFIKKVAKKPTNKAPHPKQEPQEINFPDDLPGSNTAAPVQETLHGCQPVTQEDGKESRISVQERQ
T7 sequence (Q9NZQ7 19-290): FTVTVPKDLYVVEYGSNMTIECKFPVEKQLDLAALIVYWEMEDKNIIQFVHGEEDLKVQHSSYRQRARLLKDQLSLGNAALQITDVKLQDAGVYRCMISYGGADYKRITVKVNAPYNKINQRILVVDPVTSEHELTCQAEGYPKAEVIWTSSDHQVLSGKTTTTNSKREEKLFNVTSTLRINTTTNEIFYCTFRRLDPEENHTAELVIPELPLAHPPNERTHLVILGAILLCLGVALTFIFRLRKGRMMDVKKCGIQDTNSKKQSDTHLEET
T10 sequence (Q15116 25-288): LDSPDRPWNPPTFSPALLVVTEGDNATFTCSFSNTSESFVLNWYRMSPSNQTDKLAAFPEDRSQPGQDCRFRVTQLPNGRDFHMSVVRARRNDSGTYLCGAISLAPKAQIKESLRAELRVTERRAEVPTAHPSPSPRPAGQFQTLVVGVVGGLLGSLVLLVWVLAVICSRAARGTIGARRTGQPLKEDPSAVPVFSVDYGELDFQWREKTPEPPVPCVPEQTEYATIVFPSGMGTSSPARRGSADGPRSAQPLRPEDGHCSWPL

binding result (human VISTA on CHO cells): no binding
binding result (human TIGIT on CHO cells): no binding
binding result (human CD40 on CHO cells): no binding
binding result (human CD27 on CHO cells): no binding
binding result (human GITR on CHO cells): no binding
binding result (human CD19 on CHO cells): no binding
binding result (human PD-L1 on CHO cells): no binding
binding result (human CD160 on CHO cells): no binding
binding result (human PD-1 on CHO cells): no binding
binding result (human CD47 on CHO cells): no binding
binding result (human B7-H4 on CHO cells): no binding
binding result (human LTBR on CHO cells): no binding
binding result (human BTLA on CHO cells): no binding
B1: Clone 3712-IgG1v (IgG1v/kappa) (antibody)
heavy: QVQLVQSGAEVKKPGASVKVSCKASGYTFAGFEMHWVRQAPGQGLEWMGAIDPKTGGTDYNQKFKDRVTMTRDTSISTAYMELSRLRSDDTAVYYCARDLGYFDVWGQGTLVTVSSASTKGPSVFPLAPSSKSTSGGTAALGCLVKDYFPEPVTVSWNSGALTSGVHTFPAVLQSSGLYSLSSVVTVPSSSLGTQTYICNVNHKPSNTKVDKKVEPKSCDKTHTCPPCPAPELLGPSVFLFPPKPKDTLMISRTPEVTCVVVDVEHEDPEVKFNWYVDGVEVHNAKTKPREEQYNSTYRVVSVLTVLHQDWLNGKEYKCKVSNKALPAPIEKTISKAKGQPREPQVYTLPPSREEMTKNQVSLTCLVKGFYPSDIAVEWESNGQPENNYKTTPPVLDSDGSFFLYSKLTVDKSRWQQGNVFSCSVMHEALHNHYTQKSLSLSPGK
light: DIQMTQSPSSLSASVGDRVTITCRASQDIRSNLNWYQQKPGGAVKLLIYYTSRLHSGVPSRFSGSGSGTDYTLTISSLQPEDFATYFCQQSEKLPRTFGGGTKVEIRRTVAAPSVFIFPPSDEQLKSGTASVVCLLNNFYPREAKVQWKVDNALQSGNSQESVTEQDSKDSTYSLSSTLTLSKADYEKHKVYACEVTHQGLSSPVTKSFNRGEC
notes: copies: 2 + 2
binding result [1]: no binding
